# Results: the nanobody polyreactivity screen of Harvey et al. (2022)
# Experiment: yeast display, Sf9 membrane polyspecificity reagent, FACS + sequencing; frameworks hold sequencing errors
# Outline: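 Nanobodies came from a synthetic yeast display library in Saccharomyces cerevisiae BJ5465, induced with galactose for 36–48 hours and stained for 1 hour at 4 °C with 10% biotinylated, detergent-solubilized Sf9 membrane reagent. Cells were enriched on streptavidin microbeads and then FACS-sorted, with low and high (top ~1%) gates set on anti-HA fluorescence for expression and streptavidin fluorescence for reagent binding. Each polyreactivity label reflects the gate a clone came from. Genes were amplified by colony PCR, sequenced by MiSeq 2 × 250 and filtered by CDR length.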
row,Sequence,polyreactivity (PSR sort gate)
1,QVQLVESGGGLVQAGGSLRLSCAASGRIFDKYTMGWYRQAPGKERELVAAISKSGSGTFYADSVKGRFTISRDNAKNTVYLQMNSLKPEDTAVYYCARVYTVGTGRSWRLDYCGQGTQVTVSS,high polyreactivity
2,QVQLVESGGGLVQAGGSLRLSCAASGRIFDLNAMGWYRQAPGKERELVAAITNTGSTNYADSVKGRFTISRDNAKNTVYLQMNSLKPEDTAVYYCARTYWLRYSGYRDDEYDYWGQGTQVTVSS,low polyreactivity
3,QVQLVESGGGLVQAGGSLRLSCAASGRIFDLNTMGWYRQAPGKERELVAAISSGGSTYYADSVKGRFTISRDNAKNTVYLQMNSLKPEDTAVYYCAADKIRGYRIRMYWGQGTQVTVSS,low polyreactivity
4,QVQLVESGGGLVQAGGSLRLSCAASGRIFDLNVMGWYRQAPGKERELVAAIRSGGRTNYADSVKGRFTISRDNAKNTVYLQMNSLKPEDTAVYYCNVRRGYWHPGYGWANYDYWGQGTQVTVSS,high polyreactivity
5,QVQLVESGGGLVQAGGSLRLSCAASGRIFDLYAMGWYRQAPGKEREFVAAISGRGGSTYYADSVKGRFTISRDNAKNTVYLQMNSLKPEDTAVYYCNAKRSLYGRYGYWGQGSQVTVSS,high polyreactivity
6,QVQLVESGGGLVQAGGSLRLSCAASGRIFDLYTMGWYRQATGKERELVAAIRWSDGSTYYADSVKGRFTISRDNAKNSVYLQMNSLKPVDTAVYYCAADTRTSYYNDDYDYWGQGTQVTVSS,low polyreactivity
7,QVQLVESGGGLVQAGGSLRLSCAASGRIFDPYAMGWYRQAPGKEREVVASISWSGGRTYYADSVKGRFTISRDNAKNTVYLQMNSLKPEDTAVYYCAARQWYRYKVRIDYWGQGTQVTVSS,high polyreactivity
8,QVQLVESGGGLVQAGGSLRLSCAASGRIFDPYTMGWYRQAPGKERELVAAISGRTGRTYYADSVKGRFTISRDNAKNTVYLQMNSLKPEDTAVYYCNAVRYVVLPGGPKFDYWGQGTQVTVSS,high polyreactivity
9,QVQLVESGGGLVQAGGSLRLSCAASGRIFDRYAMGWYRQAPGKERELVASITSSGGNTYYADSVKGRFTISRDNAKNTVYFQMNSLKPEDTAVYYCAKPQRVWQYGNYYYWGQGTQVTVSS,high polyreactivity
10,QVQLVESGGGLVQAGGSLRLSCAASGRIFDSYAMGSYRQAPGKERELVAVISNNDGTTYYADSVKGRFTISRDNEKNTVYLQMNSLKPEDTAVYYCAAEEPLFGYLWYVVTYAGIYDYWGQGSQVTVSS,low polyreactivity
11,QVQLVESGGGLVQAGGSLRLSCAASGRIFDSYTMGWYRQEPGKERELVAAISGGGITNYADSVKGRFTISRDNAKNTVYLQMNSLKPEDTAVYYCAARDRYYFGGMYYWGQGTQVTVSS,low polyreactivity
12,QVQLVESGGGLVQAGGSLRLSCAASGRIFDTNAMGWYRQAPGKEREFVAAISRSGGSTYYADSVKGRFTISRDNAKNTVYLQMNSLKPEDTAVYYCAARWYVLQPLGYDASRYGYWGQGTQVTVSS,high polyreactivity
13,QVQLVESGGGLVQAGGSLRLSCAASGRIFDTNFIGWYRLAPGKERELVAANSQSGGITYYADSVKGRFTISRDNAKKTVYLQMNSLKPEDTAVYYCAKDTVTVSFNEYDYWGQGTQVTVSS,low polyreactivity
14,QVQLVESGGGLVQAGGSLRLSCAASGRIFDTNVRGWSRQAPGKERELVAAISSGGSTYYADSVKGRFTISRDNAKTTVYLQMNSLKPEDTAVYYCAAESRTSRARRYYWGQGTQVTVSS,high polyreactivity
15,QVQLVESGGGLVQAGGSLRLSCAASGRIFDTYAMGWYRQAPGKERELVAAITRRGGSTYYADSVKGRFTISRDNAKNTVYLQMNSLKPEDTAVYYCAKSLVNRHYDYWGQGTQVTVSS,low polyreactivity
16,QVQLVESGGGLVQAGGSLRLSCAASGRIFDTYVMGWYRQAPGKERELVAAISRSGGSTYYADSVKGRFTISRDNAKNTVYLQMNSLKPEDTAVYYCNKLASWWSAYYNPYEYWGQGTQVTVSS,high polyreactivity
17,QVQLVESGGGLVQAGGSLRLSCAASGRIFDVYAMGWYRQAPGKERELVAAITWSGTSTYYADSVKGRFTISRDNAKNTVYLQKNSLKPEDTAVYYCAAEVAYTDTEYFWYYYWGQGTQVTVSS,high polyreactivity
18,QVQLVESGGGLVQAGGSLRLSCAASGRIFDVYAMGWYRQAPGKERELVATITCSGGGTYYADSVKGRFTISRDNAKNSVYLQMNSLKPEDTAVYYCAADYYPTYAYYVSNVGYDYWGQGTQVTVSS,low polyreactivity
19,QVQLVESGGGLVQAGGSLRLSCAASGRIFDWNMGWYRQAPGKERELVAGITFSVDSTYYADSVKGRFTISRDNAKNTVYLQMNSLKPEDTAYWGQGTQVTVSS,low polyreactivity
20,QVQLVESGGGLVQAGGSLRLSCAASGRIFDYAMGWYRQAPGKERELVAAISGSGGSTYYADSVKGRFTISRDNAKNTVYLQMNSLKPEDTAVYYCSTSGPQYYSRNFDYWGQGTQVTVSS,low polyreactivity
21,QVQLVESGGGLVQAGGSLRLSCAASGRIFDYNAMGWYRQAPGKERELVAAITSAGGTNYADSVKGRFTISRDNAKNTVYLQMNSLKPEDTAVYDCAADGSGYYDWYYYWGQGTQVTVSS,low polyreactivity
22,QVQLVESGGGLVQAGGSLRLSCAASGRIFDYYAMGWYRQAPGKERELVAAISSSVGNTYYADSVKGRFTISRDNAKNSVYLQINSLKQEDTAVYYCADYSYVRSSYEVEYDYWGQGTQVTVSS,low polyreactivity

row,Sequence,polyreactivity (PSR sort gate)
1,QVQLVESGGGLVQAGGSLRLSCAASGRIFDYYAMGWYRQAPGKERELVASISRSGGSTYYADSVKGRFTISRDNAKNTVYLQMNSLKPDDSAVYYCAASRGYYYGRVGYWGQGTQVTVSS,high polyreactivity
2,QVQLVESGGGLVQAGGSLRLSCAASGRIFDYYAMGWYRQAPGKERELVATINFSDGSTYYADSVKGRFTISRDNAKNTVYLQMNSLKPEDTAGYYCAAAGWEPYDSLDMNYWGQGTQVTVSS,low polyreactivity
3,QVQLVESGGGLVQAGGSLRLSCAASGRIFEHYAMGWYRQAPGKERELVAAITVSVGSTYYADSVKGRFTISRDNAKNTVYLEMNSLKPEDTAVYYCAAGIHCRYARDWYEYWGQGTQVTVSS,low polyreactivity
4,QVQLVESGGGLVQAGGSLRLSCAASGRIFEINAMGWYRQAPGKERELVAGISYSGGSTYYADSVKGRFTISRDNAKNTVYLQMNSLKPEDTAVYYCAALFQSYQITYDSWGQGTQVTVSS,low polyreactivity
5,QVQLVESGGGLVQAGGSLRLSCAASGRIFELYAMGWYRQAPGKERELVADITTIGDSTYYADSVKGRFTISRDNAKNTVYLQMNSLKPEDTAVYYCAADPYVDSYDSWGQGTQVTVSS,low polyreactivity
6,QVQLVESGGGLVQAGGSLRLSCAASGRIFEYYAMGWYRQAPGKERELVAVISSGSSTNYADSVKGRFTISRDNAKNTVYLQMNSLKPEDTAVYYCAAEYSVYYRFSDGDYWGQGTQVTVSS,low polyreactivity
7,QVQLVESGGGLVQAGGSLRLSCAASGRIFFANAMGWYRQAPGKERELVAAISWRGGSTYYADSVKGRFTISRDNAKNTFYLQMNSLKPEDTAVYYCNAVTRGYYHEMEYWGQGTQVTVSS,high polyreactivity
8,QVQLVESGGGLVQAGGSLRLSCAASGRIFFANAMGWYRQAPGKEWELVGAISRGGRTNYADSVKGRFTISRDNAKNTVYLQMNSLKPEDTAVYYFAAVRLSHAPSYYLYGMAYWGHGTQVTVSS,low polyreactivity
9,QVQLVESGGGLVQAGGSLRLSCAASGRIFFAYAMGWYRQAPGKEREFVAAISDNDGSTYYADSVKGRFTISRDNAKNTVYLQMNSLKPEDTAVYYCNADLGYVYDYWGQGTQVTVSS,low polyreactivity
10,QVQLVESGGGLVQAGGSLRLSCAASGRIFFDYAMGSYRQAPGKEWVLVAAINRGGRTYYADSVKGRFTMSRDNAKNTVYLPMNTLKPEDTAVYYCPADGQTAKSNFAYWGQRTQVTVSS,low polyreactivity
11,QVQLVESGGGLVQAGGSLRLSCAASGRIFFFNAMGWYRQAPGKERELVARITRGGSTNYADSVKGRFTISRDNAKNTVYLQMNILKPEDTAVYYCARDGYATTNARYGYDYWGQGTQVTVSS,low polyreactivity
12,QVQLVESGGGLVQAGGSLRLSCAASGRIFFHYAMGWYRQAPGKERELVAVISSSGGITYYADSVKGRFTFSRDNAKNTVYLQMNSLKPEDTAVYYCNTVPRPFDRYGYWGQGTQVTVSS,low polyreactivity
13,QVQLVESGGGLVQAGGSLRLSCAASGRIFFLNTMGWYRQAPGKERELVAAITRGGSTYYADSVKGRFTISRDNAKNTVYLQMNSLKPEDTAVYYCAADVYGGIGYDYWGQGTQVTVSS,low polyreactivity
14,QVQLVESGGGLVQAGGSLRLSCAASGRIFFLYAMGWYRQAPGKERELVASINRGGNTNYADSVKGRFTISRDNAKNTVYLHMNSLKPEDTAVYYCAARLVIFYPYSRYYYWGQGTQVTVSS,high polyreactivity
15,QVQLVESGGGLVQAGGSLRLSCAASGRIFFPYAMGWYRQAPGKERELVAAINYSGGSTYYADSVKGRFTISRDNAKNTVYLQMNSLKPEDTAVYYCADGYFWALYVRKYDYWGQGTQVTVSS,high polyreactivity
16,QVQLVESGGGLVQAGGSLRLSCAASGRIFFRYVMGWYRQAPGKERELVAAIDRGGTTNYADSVKGRFTISRDNAKNTVYLQMNSLKPEDTAVYYCAVRYFPYRDYYWGQGTQVTVSS,high polyreactivity
17,QVQLVESGGGLVQAGGSLRLSCAASGRIFFTNAMGWYRQAPGKERELVAAISKYGARTYYADSVKGRFTISRDKAKNTVYLQMNSLKPEDTAVYYCAADVSVSGYYYWGQGTQVTVSS,high polyreactivity
18,QVQLVESGGGLVQAGGSLRLSCAASGRIFFTNTMGWYRQAPGKERELVAAITRSGTRTYYADSVKGRFTISRDNAKNTVYLQMNSLKPEDTAVYYCNAVVRQLVRYDYWGQGTQVTVSS,high polyreactivity
19,QVQLVESGGGLVQAGGSLRLSCAASGRIFFVYAMGWYRQAPGKERELVASITGGGSTNYADSVKGRFTISRDNAKNTVYLQMNSLKPEDTAVYYCAADIHSTRVFPEYPSGYDYWGQGTQVTVSS,low polyreactivity
20,QVQLVESGGGLVQAGGSLRLSCAASGRIFFVYAMGWYRQSPGKERELVAAISVSDVSTSYADSVKGRFTISRDIAKNTVYLQMNSLKQEDTAVYYCNAGFRFYVYSRIGGEDYWGQGTQVTVSS,low polyreactivity
21,QVQLVESGGGLVQAGGSLRLSCAASGRIFFYNAMGWSRQAPGKERELVAAISARGDRTYYADSVKGRFTISRDNAKNTVYLQMNSLKPEDTAVYYCAADYYNYRYDYWGQGTQVTVSS,high polyreactivity
